Legend:
Test in all cases: flow cytometry, transfected cells
CD28 (human) = CD28 (human) (UniProt P10747)
[1] = molecular target: CTLA-4 (Homo sapiens (Human)) (UniProt P16410)
[2] = substrate: ICOS (Homo sapiens (Human)) (UniProt Q9Y6W8)
ICOS (Homo sapiens (Human)), sequence (Q9Y6W8 21-199 limits assumed): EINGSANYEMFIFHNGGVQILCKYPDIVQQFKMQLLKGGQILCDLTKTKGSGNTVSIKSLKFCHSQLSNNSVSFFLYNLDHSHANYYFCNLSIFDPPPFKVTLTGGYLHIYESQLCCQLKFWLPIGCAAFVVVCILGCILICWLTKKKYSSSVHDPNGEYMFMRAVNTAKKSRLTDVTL

CTLA-4 (Homo sapiens (Human)), sequence (P16410 36-223): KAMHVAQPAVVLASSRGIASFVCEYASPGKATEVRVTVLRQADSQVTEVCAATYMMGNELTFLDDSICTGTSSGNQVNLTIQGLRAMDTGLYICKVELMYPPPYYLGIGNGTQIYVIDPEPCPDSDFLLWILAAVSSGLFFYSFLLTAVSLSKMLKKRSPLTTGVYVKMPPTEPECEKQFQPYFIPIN

B1: ICOSL-Fc N52S/N57L/Q100S (Fc fusion)
chain: DTQEKEVRAMVGSDVELSCACPEGSRFDLNDVYVYWQTSESKTVVTYHIPQSSSLELVDSRYRNRALMSPAGMLRGDFSLRLFNVTPQDEQKFHCLVLSSSLGFQEVLSVEVTLHVAANFSVPVVSAPHSPSQDELTFTCTSINGYPRPNVYWINKTDNSLLDQALQNDTVFLNMRGLYDVVSVLRIARTPSVNIGCCIENVLLQQNLTVGSQTGNDIGERDKITENPVSTGEKNAAT
MFI (CD28 (human)): 108000 MFI | MFI ratio to WT (ΔWT) (CD28 (human)): 4.8 fold | MFI [1]: 197000 MFI | MFI ratio to WT (ΔWT) [1]: 0.6 fold | MFI [2]: 269000 MFI | MFI ratio to WT (ΔWT) [2]: 1.27 fold

B2: ICOSL-Fc N52G/N57V (Fc fusion)
chain: DTQEKEVRAMVGSDVELSCACPEGSRFDLNDVYVYWQTSESKTVVTYHIPQGSSLEVVDSRYRNRALMSPAGMLRGDFSLRLFNVTPQDEQKFHCLVLSQSLGFQEVLSVEVTLHVAANFSVPVVSAPHSPSQDELTFTCTSINGYPRPNVYWINKTDNSLLDQALQNDTVFLNMRGLYDVVSVLRIARTPSVNIGCCIENVLLQQNLTVGSQTGNDIGERDKITENPVSTGEKNAAT
MFI (CD28 (human)): 69100 MFI | MFI ratio to WT (ΔWT) (CD28 (human)): 3.1 fold | MFI [1]: 52500 MFI | MFI ratio to WT (ΔWT) [1]: 0.16 fold | MFI [2]: 332000 MFI | MFI ratio to WT (ΔWT) [2]: 1.57 fold

B3: ICOSL-Fc N52G/N57V/Q100G (Fc fusion)
chain: DTQEKEVRAMVGSDVELSCACPEGSRFDLNDVYVYWQTSESKTVVTYHIPQGSSLEVVDSRYRNRALMSPAGMLRGDFSLRLFNVTPQDEQKFHCLVLSGSLGFQEVLSVEVTLHVAANFSVPVVSAPHSPSQDELTFTCTSINGYPRPNVYWINKTDNSLLDQALQNDTVFLNMRGLYDVVSVLRIARTPSVNIGCCIENVLLQQNLTVGSQTGNDIGERDKITENPVSTGEKNAAT
MFI (CD28 (human)): 23700 MFI | MFI ratio to WT (ΔWT) (CD28 (human)): 1.1 fold | MFI [1]: 14700 MFI | MFI ratio to WT (ΔWT) [1]: 0.04 fold | MFI [2]: 260000 MFI | MFI ratio to WT (ΔWT) [2]: 1.23 fold

B4: ICOSL-Fc N52S/N57Y/Q100M (Fc fusion)
chain: DTQEKEVRAMVGSDVELSCACPEGSRFDLNDVYVYWQTSESKTVVTYHIPQSSSLEYVDSRYRNRALMSPAGMLRGDFSLRLFNVTPQDEQKFHCLVLSMSLGFQEVLSVEVTLHVAANFSVPVVSAPHSPSQDELTFTCTSINGYPRPNVYWINKTDNSLLDQALQNDTVFLNMRGLYDVVSVLRIARTPSVNIGCCIENVLLQQNLTVGSQTGNDIGERDKITENPVSTGEKNAAT
MFI (CD28 (human)): 157000 MFI | MFI ratio to WT (ΔWT) (CD28 (human)): 7 fold | MFI [1]: 395000 MFI | MFI ratio to WT (ΔWT) [1]: 1.2 fold | MFI [2]: 303000 MFI | MFI ratio to WT (ΔWT) [2]: 1.43 fold

B5: ICOSL-Fc N52R/N57F/Q100T (Fc fusion)
chain: DTQEKEVRAMVGSDVELSCACPEGSRFDLNDVYVYWQTSESKTVVTYHIPQRSSLEFVDSRYRNRALMSPAGMLRGDFSLRLFNVTPQDEQKFHCLVLSTSLGFQEVLSVEVTLHVAANFSVPVVSAPHSPSQDELTFTCTSINGYPRPNVYWINKTDNSLLDQALQNDTVFLNMRGLYDVVSVLRIARTPSVNIGCCIENVLLQQNLTVGSQTGNDIGERDKITENPVSTGEKNAAT
MFI (CD28 (human)): 127000 MFI | MFI ratio to WT (ΔWT) (CD28 (human)): 5.7 fold | MFI [1]: 358000 MFI | MFI ratio to WT (ΔWT) [1]: 1.08 fold | MFI [2]: 270000 MFI | MFI ratio to WT (ΔWT) [2]: 1.27 fold

B6: ICOSL-Fc N52T/N57H/Q100A (Fc fusion)
chain: DTQEKEVRAMVGSDVELSCACPEGSRFDLNDVYVYWQTSESKTVVTYHIPQTSSLEHVDSRYRNRALMSPAGMLRGDFSLRLFNVTPQDEQKFHCLVLSASLGFQEVLSVEVTLHVAANFSVPVVSAPHSPSQDELTFTCTSINGYPRPNVYWINKTDNSLLDQALQNDTVFLNMRGLYDVVSVLRIARTPSVNIGCCIENVLLQQNLTVGSQTGNDIGERDKITENPVSTGEKNAAT
MFI (CD28 (human)): 113000 MFI | MFI ratio to WT (ΔWT) (CD28 (human)): 5 fold | MFI [1]: 350000 MFI | MFI ratio to WT (ΔWT) [1]: 1.06 fold | MFI [2]: 220000 MFI | MFI ratio to WT (ΔWT) [2]: 1.04 fold

B7: ICOSL-Fc N52R/N57Y/Q100R (Fc fusion)
chain: DTQEKEVRAMVGSDVELSCACPEGSRFDLNDVYVYWQTSESKTVVTYHIPQRSSLEYVDSRYRNRALMSPAGMLRGDFSLRLFNVTPQDEQKFHCLVLSRSLGFQEVLSVEVTLHVAANFSVPVVSAPHSPSQDELTFTCTSINGYPRPNVYWINKTDNSLLDQALQNDTVFLNMRGLYDVVSVLRIARTPSVNIGCCIENVLLQQNLTVGSQTGNDIGERDKITENPVSTGEKNAAT
MFI (CD28 (human)): 3280 MFI | MFI ratio to WT (ΔWT) (CD28 (human)): 0.1 fold | MFI [1]: 4270 MFI | MFI ratio to WT (ΔWT) [1]: 0.01 fold | MFI [2]: 6100 MFI | MFI ratio to WT (ΔWT) [2]: 0.03 fold

B8: ICOSL-Fc N52L/N57H/Q100R (Fc fusion)
chain: DTQEKEVRAMVGSDVELSCACPEGSRFDLNDVYVYWQTSESKTVVTYHIPQLSSLEHVDSRYRNRALMSPAGMLRGDFSLRLFNVTPQDEQKFHCLVLSRSLGFQEVLSVEVTLHVAANFSVPVVSAPHSPSQDELTFTCTSINGYPRPNVYWINKTDNSLLDQALQNDTVFLNMRGLYDVVSVLRIARTPSVNIGCCIENVLLQQNLTVGSQTGNDIGERDKITENPVSTGEKNAAT
MFI (CD28 (human)): 141000 MFI | MFI ratio to WT (ΔWT) (CD28 (human)): 6.3 fold | MFI [1]: 353000 MFI | MFI ratio to WT (ΔWT) [1]: 1.07 fold | MFI [2]: 250000 MFI | MFI ratio to WT (ΔWT) [2]: 1.18 fold

B9: ICOSL-Fc N52S/N57Y/Q100S (Fc fusion)
chain: DTQEKEVRAMVGSDVELSCACPEGSRFDLNDVYVYWQTSESKTVVTYHIPQSSSLEYVDSRYRNRALMSPAGMLRGDFSLRLFNVTPQDEQKFHCLVLSSSLGFQEVLSVEVTLHVAANFSVPVVSAPHSPSQDELTFTCTSINGYPRPNVYWINKTDNSLLDQALQNDTVFLNMRGLYDVVSVLRIARTPSVNIGCCIENVLLQQNLTVGSQTGNDIGERDKITENPVSTGEKNAAT
MFI (CD28 (human)): 161000 MFI | MFI ratio to WT (ΔWT) (CD28 (human)): 7.2 fold | MFI [1]: 205000 MFI | MFI ratio to WT (ΔWT) [1]: 0.62 fold | MFI [2]: 224000 MFI | MFI ratio to WT (ΔWT) [2]: 1.06 fold

B10: ICOSL-Fc N52K/N57Y/Q100R (Fc fusion)
chain: DTQEKEVRAMVGSDVELSCACPEGSRFDLNDVYVYWQTSESKTVVTYHIPQKSSLEYVDSRYRNRALMSPAGMLRGDFSLRLFNVTPQDEQKFHCLVLSRSLGFQEVLSVEVTLHVAANFSVPVVSAPHSPSQDELTFTCTSINGYPRPNVYWINKTDNSLLDQALQNDTVFLNMRGLYDVVSVLRIARTPSVNIGCCIENVLLQQNLTVGSQTGNDIGERDKITENPVSTGEKNAAT
MFI (CD28 (human)): 141000 MFI | MFI ratio to WT (ΔWT) (CD28 (human)): 6.3 fold | MFI [1]: 233000 MFI | MFI ratio to WT (ΔWT) [1]: 0.71 fold | MFI [2]: 199000 MFI | MFI ratio to WT (ΔWT) [2]: 0.94 fold

B11: ICOSL-Fc N52R/N57W/Q100K (Fc fusion)
chain: DTQEKEVRAMVGSDVELSCACPEGSRFDLNDVYVYWQTSESKTVVTYHIPQRSSLEWVDSRYRNRALMSPAGMLRGDFSLRLFNVTPQDEQKFHCLVLSKSLGFQEVLSVEVTLHVAANFSVPVVSAPHSPSQDELTFTCTSINGYPRPNVYWINKTDNSLLDQALQNDTVFLNMRGLYDVVSVLRIARTPSVNIGCCIENVLLQQNLTVGSQTGNDIGERDKITENPVSTGEKNAAT
MFI (CD28 (human)): 131000 MFI | MFI ratio to WT (ΔWT) (CD28 (human)): 5.9 fold | MFI [1]: 477000 MFI | MFI ratio to WT (ΔWT) [1]: 1.44 fold | MFI [2]: 349000 MFI | MFI ratio to WT (ΔWT) [2]: 1.65 fold

B12: ICOSL-Fc N52S/N57Y/Q100V (Fc fusion)
chain: DTQEKEVRAMVGSDVELSCACPEGSRFDLNDVYVYWQTSESKTVVTYHIPQSSSLEYVDSRYRNRALMSPAGMLRGDFSLRLFNVTPQDEQKFHCLVLSVSLGFQEVLSVEVTLHVAANFSVPVVSAPHSPSQDELTFTCTSINGYPRPNVYWINKTDNSLLDQALQNDTVFLNMRGLYDVVSVLRIARTPSVNIGCCIENVLLQQNLTVGSQTGNDIGERDKITENPVSTGEKNAAT
MFI (CD28 (human)): 126000 MFI | MFI ratio to WT (ΔWT) (CD28 (human)): 5.7 fold | MFI [1]: 305000 MFI | MFI ratio to WT (ΔWT) [1]: 0.92 fold | MFI [2]: 219000 MFI | MFI ratio to WT (ΔWT) [2]: 1.03 fold

B13: ICOSL-Fc N52C/N57E/Q100S (Fc fusion)
chain: DTQEKEVRAMVGSDVELSCACPEGSRFDLNDVYVYWQTSESKTVVTYHIPQCSSLEEVDSRYRNRALMSPAGMLRGDFSLRLFNVTPQDEQKFHCLVLSSSLGFQEVLSVEVTLHVAANFSVPVVSAPHSPSQDELTFTCTSINGYPRPNVYWINKTDNSLLDQALQNDTVFLNMRGLYDVVSVLRIARTPSVNIGCCIENVLLQQNLTVGSQTGNDIGERDKITENPVSTGEKNAAT
MFI (CD28 (human)): 13400 MFI | MFI ratio to WT (ΔWT) (CD28 (human)): 0.6 fold | MFI [1]: 10600 MFI | MFI ratio to WT (ΔWT) [1]: 0.03 fold | MFI [2]: 125000 MFI | MFI ratio to WT (ΔWT) [2]: 0.59 fold

B14: ICOSL-Fc N52R/N57L/Q100S (Fc fusion)
chain: DTQEKEVRAMVGSDVELSCACPEGSRFDLNDVYVYWQTSESKTVVTYHIPQRSSLELVDSRYRNRALMSPAGMLRGDFSLRLFNVTPQDEQKFHCLVLSSSLGFQEVLSVEVTLHVAANFSVPVVSAPHSPSQDELTFTCTSINGYPRPNVYWINKTDNSLLDQALQNDTVFLNMRGLYDVVSVLRIARTPSVNIGCCIENVLLQQNLTVGSQTGNDIGERDKITENPVSTGEKNAAT
MFI (CD28 (human)): 112000 MFI | MFI ratio to WT (ΔWT) (CD28 (human)): 5 fold | MFI [1]: 289000 MFI | MFI ratio to WT (ΔWT) [1]: 0.88 fold | MFI [2]: 231000 MFI | MFI ratio to WT (ΔWT) [2]: 1.09 fold

B15: ICOSL-Fc N52T/N57H/Q100S (Fc fusion)
chain: DTQEKEVRAMVGSDVELSCACPEGSRFDLNDVYVYWQTSESKTVVTYHIPQTSSLEHVDSRYRNRALMSPAGMLRGDFSLRLFNVTPQDEQKFHCLVLSSSLGFQEVLSVEVTLHVAANFSVPVVSAPHSPSQDELTFTCTSINGYPRPNVYWINKTDNSLLDQALQNDTVFLNMRGLYDVVSVLRIARTPSVNIGCCIENVLLQQNLTVGSQTGNDIGERDKITENPVSTGEKNAAT
MFI (CD28 (human)): 143000 MFI | MFI ratio to WT (ΔWT) (CD28 (human)): 6.4 fold | MFI [1]: 378000 MFI | MFI ratio to WT (ΔWT) [1]: 1.14 fold | MFI [2]: 259000 MFI | MFI ratio to WT (ΔWT) [2]: 1.22 fold

B16: ICOSL-Fc N52S/N57M/Q100S (Fc fusion)
chain: DTQEKEVRAMVGSDVELSCACPEGSRFDLNDVYVYWQTSESKTVVTYHIPQSSSLEMVDSRYRNRALMSPAGMLRGDFSLRLFNVTPQDEQKFHCLVLSSSLGFQEVLSVEVTLHVAANFSVPVVSAPHSPSQDELTFTCTSINGYPRPNVYWINKTDNSLLDQALQNDTVFLNMRGLYDVVSVLRIARTPSVNIGCCIENVLLQQNLTVGSQTGNDIGERDKITENPVSTGEKNAAT
MFI (CD28 (human)): 134000 MFI | MFI ratio to WT (ΔWT) (CD28 (human)): 6 fold | MFI [1]: 228000 MFI | MFI ratio to WT (ΔWT) [1]: 0.69 fold | MFI [2]: 312000 MFI | MFI ratio to WT (ΔWT) [2]: 1.47 fold
